Assay results: patent publication US20230270877A1, “Combination Therapy” (Seagen Inc., priority 2020, published 2023)

Experiments:
human FcγRIIIa = biological target: T1, human FcγRIIIa (Homo sapiens, UniProt P08637); experiment: FcγR binding by flow cytometry on transfected CHO cells; settings: FIG. 11B-D
T1 construct: expressed in transfected cells; host or cells: CHO cells
Method: (§1) CHO cells were incubated with increasing concentrations of antibodies and a secondary antibody used to assess binding as monitored by flow cytometry.
(§2) For each cell line, 50 million cells were washed once in 50 mL of PBS. Cells were counted again and resuspended at 2.2 million cells/mL in BD stain buffer. Cells were plated in a 96-well round bottom plate at 0.1 mL of cells per well.
(§3) Antibody solutions were diluted to make the following final concentrations: 3 mg/mL, 1 mg/mL, 0.3 mg/mL, 0.1 mg/mL, 0.03 mg/mL, 0.01 mg/mL, 0.003 mg/mL, 0.001 mg/mL, 0.0003 mg/mL. Each antibody solution was diluted at 10×(i.e., […] of media) to produce the following concentrations: 300, 100, 30, 10, 3, 1, […] μg/ml. Media was removed from the cells and the cells were washed with media. 100 μL of antibody solution was added to each well. Antibody solutions were added with decreasing concentrations in the vertical direction. […]
(§4) Next, PE conjugated anti-human IgG Fc antibody was prepared (1/50 dilution of 1 mg/ml concentration=[…] saturating concentration) in BD stain buffer. […] Cells were resuspended in PBS+1% paraformaldehyde and kept at 4° C. until they were analyzed by flow cytometry. Samples were analyzed using the Attune flow cytometer. […]

human FcγRIIb = biological target: T2, human FcγRIIb (Homo sapiens, UniProt P31994); experiment: as above; settings: FIG. 11B-D
T2 construct: expressed in transfected cells; host or cells: CHO cells
T2 sequence (P31994 43-310): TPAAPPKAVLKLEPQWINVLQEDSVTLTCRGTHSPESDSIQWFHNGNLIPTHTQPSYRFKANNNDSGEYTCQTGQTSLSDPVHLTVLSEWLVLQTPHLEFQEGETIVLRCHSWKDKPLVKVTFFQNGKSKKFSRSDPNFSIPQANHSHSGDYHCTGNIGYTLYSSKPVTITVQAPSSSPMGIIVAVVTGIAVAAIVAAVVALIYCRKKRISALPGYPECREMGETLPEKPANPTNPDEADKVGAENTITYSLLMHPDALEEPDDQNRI
Method: as §1, §2, §3, §4

Farage cells = type: in vivo; settings: single agent, SEA-CD70 3 mg/kg or SGN-35 1 mg/kg
MM1S MM cells = experiment: Disseminated MM xenograft survival model (MM1S); type: in vivo, SCID animals; settings: 0.1 mg/kg SEA-BCMA weekly x5 IP and/or 0.01 mg/kg SGN-CD48A once IP; N=8/group; FIG. 21A
Method: MM1S MM cells were injected IV into SCID animals, which contain active innate immune effector cells to mediate ADCP and ADCC. Seven days post implant, dosing was initiated with 0.1 mg/kg SEA-BCMA and/or 0.01 mg/kg SGN-CD48A, and animals were monitored for survival. SEA-BCMA was dosed weekly for 5 weeks IP and SGN-CD48A was dosed once IP. Animals were followed for 160 days for survival (N=8/group). By day 51, all untreated animals had been humanely euthanized according to IACUC protocols.

T1 sequence (P08637 17-254): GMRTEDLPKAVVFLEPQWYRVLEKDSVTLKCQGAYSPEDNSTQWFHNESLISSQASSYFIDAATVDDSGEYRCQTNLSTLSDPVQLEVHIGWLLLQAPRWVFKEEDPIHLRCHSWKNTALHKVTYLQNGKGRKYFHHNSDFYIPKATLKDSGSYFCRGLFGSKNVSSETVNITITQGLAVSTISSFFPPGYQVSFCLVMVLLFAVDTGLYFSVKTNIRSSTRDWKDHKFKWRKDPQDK

B1: SEA-CD40: nonfucosylated, humanized version of murine S2C6 anti-CD40; VH and VL of SEQ ID NOs: 28 and 29 (antibody, V domains shown)
VH: EVQLVESGGGLVQPGGSLRLSCAASGYSFTGYYIHWVRQAPGKGLEWVARVIPNAGGTSYNQKFKGRFTLSVDNSKNTAYLQMNSLRAEDTAVYYCAREGIYWWGQGTLVTVSS
VL: DIQMTQSPSSLSASVGDRVTITCRSSQSLVHSNGNTFLHWYQQKPGKAPKLLIYTVSNRFSGVPSRFSGSGSGTDFTLTISSLQPEDFATYFCSQTTHVPWTFGQGTKVEIK
modifications: nonfucosylated; VH of SEA-CD40; VL of SEA-CD40
Human FcγRIIIa
  affinity for FcγRIIIa (rank among CD40 antibodies tested): highest affinity
Human FcγRIIb
  affinity for FcγRIIb (rank among CD40 antibodies tested): lowest affinity

B2: SEA-CD70: nonfucosylated antibody targeting the CD70 antigen; VH and VL of SEQ ID NOs: 41 and 42 (antibody, V domains shown)
VH: QVQLVQSGAEVKKPGASVKVSCKASGYTFTNYGMNWVRQAPGQGLKWMGWINTYTGEPTYADAFKGRVTMTRDTSISTAYMELSRLRSDDTAVYYCARDYGDYGMDYWGQGTTVTVSS
VL: DIVMTQSPDSLAVSLGERATINCRASKSVSTSGYSFMHWYQQKPGQPPKLLIYLASNLESGVPDRFSGSGSGTDFTLTISSLQAEDVAVYYCQHSREVPWTFGQGTKVEIK
modifications: nonfucosylated; SEA-CD70 heavy chain variable region; SGN-CD70 light chain variable region
Farage cells; day post implant, untreated 28.5
  day at which tumors reached an average 5 fold increase of original size: 34.5 days
Farage cells; untreated 9.5
  days post treatment at which tumors reached an average 5 fold increase: 15.5 days post treatment

B3: SEA-BCMA: nonfucosylated antibody targeting B-cell maturation antigen (BCMA); VH and VL of SEQ ID NOs: 45 and 46 (antibody, V domains shown)
VH: QVQLVQSGAEVKKPGASVKLSCKASGYTFTDYYIHWVRQAPGQGLEWIGYINPNSGYTNYAQKFQGRATMTADKSINTAYVELSRLRSDDTAVYFCTRYMWERVTGFFDFWGQGTMVTVSS
VL: DIQMTQSPSSVSASVGDRVTITCLASEDISDDLAWYQQKPGKAPKVLVYTTSSLQSGVPSRFSGSGSGTDFTLTISSLQPEDFATYFCQQTYKFPPTFGGGTKVEIK
modifications: nonfucosylated; SGN-BCMA heavy chain variable region; SGN-BCMA light chain variable region
MM1S MM cells
  animals alive by day 160: zero
